Measurements: the supplement of paper PMC10567573

B1: ZNF449 (parent)
chain: RIHSGEEPHKCPECGKRFLRSSDL
B2: PPFIA4 (parent)
chain: VMTLPSDLRKHRRKLLSPVSREEN
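Also: lentivirally expressed fusions sorted by FACS into six bins by GFP to DsRed ratio, PSI derived from sequencing read proportions per bin multiplied by bin number.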

Variants of: B1
Test: protein stability index of a GFP-peptide fusion (GPS, HEK-293T) (PSI 1-6); higher = more stable
Conditions: c terminus: a fixed tail appended
Work on AIHSGEEPHKCPECGKRFLRSSDL [R1A] yielded a protein stability index of 3.75. For LIHSGEEPHKCPECGKRFLRSSDL [R1L], the protein stability index was 2.92. IIHSGEEPHKCPECGKRFLRSSDL [R1I] gave a protein stability index of 2.38. For DIHSGEEPHKCPECGKRFLRSSDL [R1D], the protein stability index was 4.13. FIHSGEEPHKCPECGKRFLRSSDL [R1F] gave a protein stability index of 1.38. In the case of CIHSGEEPHKCPECGKRFLRSSDL [R1C], the protein stability index is reported as 5.29. With GIHSGEEPHKCPECGKRFLRSSDL [R1G] the protein stability index was 3.74. HIHSGEEPHKCPECGKRFLRSSDL [R1H] gave a protein stability index of 4.07. EIHSGEEPHKCPECGKRFLRSSDL [R1E] showed a protein stability index of 4.41. MIHSGEEPHKCPECGKRFLRSSDL [R1M] showed a protein stability index of 3.4. Variant KIHSGEEPHKCPECGKRFLRSSDL [R1K] has a protein stability index of 3.6.

Variants of: B2
Test: as above
Conditions: c terminus: a fixed tail appended
In the case of VMTLPSDLRKHRRKWLSPVSREEN [L15W], the protein stability index is reported as 3.5. With VMTLPSDLRKHRRKTLSPVSREEN [L15T] the protein stability index was 3.9. VMTLPSDLRKHRRKYLSPVSREEN [L15Y] showed a protein stability index of 4.06. With VMTLPSDLRKHRRKVLSPVSREEN [L15V] the protein stability index was 3.81. With VMTLPSDLRKHRRKSLSPVSREEN [L15S] the protein stability index was 4.94. VMTLPSDLRKHRRKRLSPVSREEN [L15R] showed a protein stability index of 3.92. Work on VMTLPSDLRKHRRKLLSPVSLEEN [R21L] yielded a protein stability index of 3.84. For VMTLPSDLRKHRRKLLSPVSQEEN [R21Q], the protein stability index was 4.36. With VMTLPSDLRKHRRKLLSPVSPEEN [R21P] the protein stability index was 3.91. VMTLPSDLRKHRRKLLSPVSCEEN [R21C] gave a protein stability index of 4.06. In the case of VMTLPSDLRKHRRKLLSPVSDEEN [R21D], the protein stability index is reported as 4.16. Variant VMTLPSDLRKHRRKLLSPVSKEEN [R21K] has a protein stability index of 4.44. Variant VMTLPSDLRKHRRKLLSPVSFEEN [R21F] has a protein stability index of 3.54. In the case of VMTLPSDLRKHRRKLLSPVSEEEN [R21E], the protein stability index is reported as 4.47. In the case of VMTLPSDLRKHRRKLLSPVSVEEN [R21V], the protein stability index is reported as 3.91. In the case of VMTLPSDLRKHRRKLLSPVSMEEN [R21M], the protein stability index is reported as 4.09. For VMTLPSDLRKHRRKLLSPVSHEEN [R21H], the protein stability index was 4.17. With VMTLPSDLRKHRRKLLSPVSWEEN [R21W] the protein stability index was 3.32. In the case of VMTLPSDLRKHRRKLLSPVSGEEN [R21G], the protein stability index is reported as 4. VMTLPSDLRKHRRKLLSPVSNEEN [R21N] showed a protein stability index of 3.85. For VMTLPSDLRKHRRKLLSPVSTEEN [R21T], the protein stability index was 4.12. With VMTLPSDLRKHRRKLLSPVSSEEN [R21S] the protein stability index was 4.29. Variant VMTLPSDLRKHRRKLLSPVSIEEN [R21I] has a protein stability index of 3.9. For VMTLPSDLRKHRRKLLSPVSYEEN [R21Y], the protein stability index was 3.34. In the case of VMTLPSDLRKHRRKLLSPVSAEEN [R21A], the protein stability index is reported as 4.18. VMTLPSDLRKHRRKLLSPVSREIN [E23I] gave a protein stability index of 3.15. In the case of VMTLPSDLRKHRRKLLSPVSREKN [E23K], the protein stability index is reported as 3.72. Variant VMTLPSDLRKHRRKLLSPVSRESN [E23S] has a protein stability index of 3.93. With VMTLPSDLRKHRRKLLSPVSRERN [E23R] the protein stability index was 3.06. With VMTLPSDLRKHRRKLLSPVSRELN [E23L] the protein stability index was 3.4. With VMTLPSDLRKHRRKLLSPVSRECN [E23C] the protein stability index was 2.88. In the case of VMTLPSDLRKHRRKLLSPVSREQN [E23Q], the protein stability index is reported as 2.96. VMTLPSDLRKHRRKLLSPVSREMN [E23M] gave a protein stability index of 3.29. For VMTLPSDLRKHRRKLLSPVSREYN [E23Y], the protein stability index was 2.96. With VMTLPSDLRKHRRKLLSPVSREAN [E23A] the protein stability index was 3.04. Work on VMTLPSDLRKHRRKLLSPVSREHN [E23H] yielded a protein stability index of 3.41. For VMTLPSDLRKHRRKLLSPVSREDN [E23D], the protein stability index was 3.52. VMTLPSDLRKHRRKLLSPVSRENN [E23N] showed a protein stability index of 3.14. Variant VMTLPSDLRKHRRKLLSPVSREWN [E23W] has a protein stability index of 2.44. Variant VMTLPSDLRKHRRKLLSPVSREFN [E23F] has a protein stability index of 2.59. Work on VMTLPSDLRKHRRKLLSPVSRETN [E23T] yielded a protein stability index of 3.04. VMTLPSDLRKHRRKLLSPVSREVN [E23V] gave a protein stability index of 3.1. Work on VMTLPSDLRKHRRKLLSPVSREPN [E23P] yielded a protein stability index of 3.5. VMTLPSDLRKHRRKLLSPVSREGN [E23G] gave a protein stability index of 2.94. With VMTLPSDLRKHRRKLASPVSREEN [L16A] the protein stability index was 4.34. VMTLPSDLRKHRRKLPSPVSREEN [L16P] showed a protein stability index of 4.12. VMTLPSDLRKHRRKLSSPVSREEN [L16S] showed a protein stability index of 4.43. For VMTLPSDLRKHRRKLVSPVSREEN [L16V], the protein stability index was 3.84. With VMTLPSDLRKHRRKLRSPVSREEN [L16R] the protein stability index was 3.99. Variant VMTLPSDLRKHRRKLISPVSREEN [L16I] has a protein stability index of 3.41. VMTLPSDLRKHRRKLDSPVSREEN [L16D] showed a protein stability index of 4.08. For VMTLPSDLRKHRRKLTSPVSREEN [L16T], the protein stability index was 4.31. Variant VMTLPSDLRKHRRKLQSPVSREEN [L16Q] has a protein stability index of 3.75. VMTLPSDLRKHRRKLHSPVSREEN [L16H] showed a protein stability index of 3.89. Work on VMTLPSDLRKHRRKLCSPVSREEN [L16C] yielded a protein stability index of 4.37. Work on VMTLPSDLRKHRRKLNSPVSREEN [L16N] yielded a protein stability index of 3.87. VMTLPSDLRKHRRKLMSPVSREEN [L16M] showed a protein stability index of 4.07. Work on VMTLPSDLRKHRRKLESPVSREEN [L16E] yielded a protein stability index of 4.29. In the case of VMTLPSDLRKHRRKLGSPVSREEN [L16G], the protein stability index is reported as 4.43. Variant VMTLPSDLRKHRRKLYSPVSREEN [L16Y] has a protein stability index of 3.85. VMTLPSDLRKHRRKLFSPVSREEN [L16F] gave a protein stability index of 3.29. VMTLPSDLRKHRRKLKSPVSREEN [L16K] showed a protein stability index of 4.03. VMTLPSDLRKHRRKLWSPVSREEN [L16W] showed a protein stability index of 3.09. Variant VMTLPSDLRKHRRKLLSPCSREEN [V19C] has a protein stability index of 3.17. Work on VMTLPSDLRKHRRKLLSPWSREEN [V19W] yielded a protein stability index of 2.52. Work on VMTLPSDLRKHRRKLLSPFSREEN [V19F] yielded a protein stability index of 2.85. With VMTLPSDLRKHRRKLLSPHSREEN [V19H] the protein stability index was 4.11. VMTLPSDLRKHRRKLLSPSSREEN [V19S] showed a protein stability index of 4.21. For VMTLPSDLRKHRRKLLSPPSREEN [V19P], the protein stability index was 4.53. Variant VMTLPSDLRKHRRKLLSPTSREEN [V19T] has a protein stability index of 4.18. Work on VMTLPSDLRKHRRKLLSPGSREEN [V19G] yielded a protein stability index of 4.31. VMTLPSDLRKHRRKLLSPYSREEN [V19Y] showed a protein stability index of 2.94. Work on VMTLPSDLRKHRRKLLSPASREEN [V19A] yielded a protein stability index of 4.06. Work on VMTLPSDLRKHRRKLLSPRSREEN [V19R] yielded a protein stability index of 3.69. VMTLPSDLRKHRRKLLSPDSREEN [V19D] gave a protein stability index of 4.57. For VMTLPSDLRKHRRKLLSPKSREEN [V19K], the protein stability index was 3.67. For VMTLPSDLRKHRRKLLSPISREEN [V19I], the protein stability index was 3.8. In the case of VMTLPSDLRKHRRKLLSPQSREEN [V19Q], the protein stability index is reported as 4.31. VMTLPSDLRKHRRKLLSPLSREEN [V19L] showed a protein stability index of 3.43. VMTLPSDLRKHRRKLLSPMSREEN [V19M] gave a protein stability index of 2.98. VMTLPSDLRKHRRKLLSPESREEN [V19E] showed a protein stability index of 4.21. VMTLPSDLRKHRRKLLSPNSREEN [V19N] gave a protein stability index of 3.91. For VMTLPSDLRKHRRKLLSPVDREEN [S20D], the protein stability index was 4.01.
